This is an account of results in patent US20150210738.

A word on the Kd: it is the concentration at which binding is half-saturated. Read a high Kd as a looser complex.

The target of data set [1] is pVI (precursor to protein VI) (Human adenovirus 2) (UniProt P03274). Description: FP. The settings on record: 20 mM Tris pH 8.0, 0.025% DDM, 0.1 mM DTT, 1 mM MgCl2, 21 C; 4:1 stoichiometry.
The subject of data set [2] is Protein VI (Human adenovirus 2). Nature of the data set: FP. The settings on record: 20 mM Tris pH 8.0, 0.025% DDM, 1 mM MgCl2, 21 C.

pVI (precursor to protein VI) (Human adenovirus 2), sequence (P03274 whole entry): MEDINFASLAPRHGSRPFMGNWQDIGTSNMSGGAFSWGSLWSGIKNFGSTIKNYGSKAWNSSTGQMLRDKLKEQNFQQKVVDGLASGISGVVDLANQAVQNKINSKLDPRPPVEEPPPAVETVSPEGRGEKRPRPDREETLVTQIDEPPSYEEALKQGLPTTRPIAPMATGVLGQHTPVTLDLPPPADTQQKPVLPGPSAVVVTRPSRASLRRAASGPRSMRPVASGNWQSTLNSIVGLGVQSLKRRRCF

33-mer dsDNA: the Kd in data set [1] came out at 35 nM; in data set [2] it was 241 nM.
